Assay results: the RNAGym collection of RNA variant scans (doi:10.1021/acssynbio.7b00057)

B1: Pistol ribozyme (parent)
chain: GGGUCGUUGUUCCAUAAUCGCGUGGAUAUGGCACGCAAGUUUCUACCGGGCACCGUAAAUGUCCGACUGGAGCCGUUCGGGCGGCUAUAAACAGACCUCAGGCCCGAAGCGUGGCGGCACCUGCCGCCGGUGGUAAAAAAGAUCGGAAGAGCACACGUCU

Variants of: B1
Test: aptazyme ON/OFF ratio, guanine; higher = stronger switching; co-transcriptional cleavage with and without guanine

In order of rising “aptazyme ON/OFF ratio” value:
1. U7G U8G G9C U10A U11A C13G  1.02
2. U7C U8G G9U U10C U11C C13A  1.03
3. U7G U8C G9U U10A U11C C13G  1.05
4. U8A G9C U10C U11G C13G  1.05
5. U7G U8C G9A U10C U11C C12G C13G  1.05
6. U8A G9C U10G U11A C13G  1.06
7. U7C U8A U10A U11C C12A C13U  1.06
8. U7A U8A G9C U10C U11A C12G C13G  1.06
9. U8A G9A U10G U11A C12U C13G  1.07
10. U10C U11C C12U C13A  1.07
11. U7G G9A U11G C12G C13A  1.07
12. U7C U8A U10A C13G  1.08
13. U8C G9C U11A C12U  1.08
14. U7C U8C G9C U10A U11G C12U C13G  1.08
15. U7A U8C G9A U10C U11C C12A C13A  1.08
16. U7C U8A G9A U11A C12A C13U  1.08
17. U8C G9C U10A U11G C12G C13U  1.09
18. G9C U10C C12G C13U  1.09
19. U7C U8A G9C U10A U11G C12G C13A  1.1
20. U7G U10C U11C C12A  1.1
21. U7C U8C G9C U10A U11C C13U  1.1
22. U7G U8C G9A U10C C12U C13G  1.11
23. U7G G9A U11G C12U C13G  1.11
24. U8C G9U U10C U11A C12A C13U  1.11
25. U7A U8A G9U U11C C13A  1.11
26. U11A C12G C13A  1.11
27. U8A G9C U11A C12G C13A  1.12
28. U7G U8G G9A U10G U11A C13U  1.12
29. U7G U8C G9A U10A U11A C12A C13G  1.12
30. U7C G9C U10G U11C C12A C13A  1.12
31. U7C U8G U10A U11A C13G  1.13
32. U7A U8A U10C U11A C13A  1.13
33. U7C U8A G9A U10C U11C C12G C13A  1.13
34. U7A U8A G9C U11C C12U C13A  1.13
35. U8G U10A U11C C12U C13U  1.14
36. U7A U8G U10A U11C C12U C13A  1.14
37. U8C G9A U10A C12U C13A  1.16
38. U7G U8A U10A U11G C12A C13A  1.17
39. U7C U8A U10C C12U C13A  1.17
40. U7C U8A G9U U11G C12U C13G  1.17
41. U7G U8C G9U U10A C12A C13A  1.18
42. U7A U8G G9A U10G C13A  1.18
43. U7G U8C U10A U11A C13A  1.18
44. U7A U8C G9U U11C C12A C13A  1.18
45. U7A U8A G9C U10A U11G C12A C13G  1.18
46. U8C G9U U10C C12G C13G  1.19
47. U7C G9C U10G U11A C12U C13A  1.19
48. U7C U8G G9C U11G  1.2
49. U7C U8C C12U C13G  1.2
50. U7C G9U U11A C12U C13U  1.2
51. U7G U8C U10C U11A C12A C13U  1.21
52. U7G U8G G9A U11C C12G C13A  1.21
53. U7C G9C U11G C12U C13U  1.21
54. U7G U8A G9A U11G C13U  1.21
55. U7C U10C C12G C13U  1.21
56. U7C U10G U11A C12G C13U  1.22
57. U7A U11C C12A C13G  1.22
58. U7G U8C G9U U11A C12G C13U  1.22
59. U7A U8G G9A C12U C13G  1.23
60. U7A G9U U10C U11A C12U  1.23
61. G9A U11C C12A C13U  1.23
62. U8C G9A U11A C12A  1.25
63. U7C U8G G9A U10G C12U C13U  1.26
64. U8G G9A U10A U11G C12A C13U  1.27
65. U8C G9A U10C U11G C12A C13G  1.27
66. U8C G9A U10G C13A  1.28
67. U7G U8G G9C U10C C12A C13A  1.29
68. U11A C13U  1.29
69. U7A G9A U10C U11G C12U C13U  1.3
70. U7G G9U U10C U11A C12U C13A  1.33
71. G9A U11A C13U  1.34
72. G9U U10C U11G C12A C13A  1.34
73. U8A G9U U10A C12A C13U  1.36
74. G9U U11G C12G C13G  1.36
75. U7G G9C U11C C13U  1.39
76. U7C U8G U10G U11C C12A C13U  1.42
77. U8C G9A U11G  1.45
78. U7A C12U  1.48
79. U7A U8G G9C U10A U11A C12A  1.5
80. U7G U8C G9U U10A U11A C12A  1.63
81. U7C U8G U10C C12A  2.01
82. U7C U8G G9C U11C C12A  2.71
83. U7C U8C G9U U10C C13U  3.5
